Test results from patent US20060029603A1 (GlaxoSmithKline, published 2006).
Like-named read-outs stand apart in the source and are kept apart here.

How the values were obtained:
[1] = biological target: T1, GST-human NOGO-A56 (human, UniProt P08515 1-218 = GST); test: ELISA, coated GST-human NOGO-A56, transfection supernatant, anti-human kappa-HRP, OD 490 nm
T1 construct: GST-tagged fusion expressed in E. coli BL21 and purified on glutathione-sepharose; coated on ELISA plates or amine-coupled to a CM5 chip; also called hNOGO; recombinant human NOGO
Experimental: (§1) GST-human NOGO-A56 (SEQ ID: 76) at 1 μg/ml in PBS was coated onto Nunc Immunosorp plates (100 μl per well) at 4° C. overnight. Wells were rinsed once with TBS+0.05% Tween (TBST) then incubated with 2% BSA in TBST to block non-specific binding sites at room temperature for 1 hour. Antibodies were diluted in TBST+2% BSA to 10 μg/ml and 1/2 dilutions made from this. Antibodies were added to wells in duplicate and incubated at room temperature for 1 hour. Wells were washed three times with TBST then incubated with anti-human kappa peroxidase conjugate (1:2000) for 1 hour. The wells were washed three times with TBST and then incubated with 100 μl OPD peroxidase substrate (Sigma) per well for 10 minutes. The colour reaction was stopped by the addition of 25 μl concentrated H₂SO₄. Optical density at 490 nm was measured using a plate reader. Background values read from wells with no antibody were subtracted.

[2] = biological target: T1, GST-human NOGO-A56; test: SPR (Biacore) off-rate ranking, CHO-K1 transient supernatant over GST-human NOGO-A56 chip; single experiment
Experimental: (§2) hNOGO (GST-human NOGO-A56) was immobilised to a CM5 chip by primary amine coupling using the Biacore Wizard program designed for targeted immobilisation levels. The CM5 sensor surface was activated by passing a solution of 50 mM N-hydroxy-succinimide (NHS) and 200 mM N-ethyl-N′-dimethylaminopropyl […] (EDC). Then hNOGO in sodium acetate buffer, pH5.0 or pH 4.5, was passed over the chip and immobilised. After immobilisation was complete any still activated esters were blocked by an injection of 1M ethanolamine hydrochloride, pH8.5.
(§3) The hNOGO chip was prepared as for kinetic analysis. Cell supernatants where taken directly from transient transfections of CHO-K1 cells. These were passed directly over the sensor surface and the interaction measured. A mock transfected cell supernatant was used for double referencing to remove any artefacts due to the tissue culture media. All runs were referenced against a blanked sensor surface (one that had been activated and blocked as described earlier but had no addition of ligand). Analysis of binding was carried out using the BIAevaluation kinetic analysis software version 4.1.

[3] = biological target: T1, GST-human NOGO-A56; test: ELISA, coated GST-human NOGO-A56, transfection supernatant, anti-human kappa-HRP, OD 490 nm; remark: listed apart in the source
Experimental: as §1

[4] = biological target: T1, GST-human NOGO-A56; test: SPR (Biacore 3000), GST-human NOGO-A56 on CM5, antibody as analyte; single experiment
Experimental: as §2
(§4) The anti-NOGO mAbs were diluted down in HBS-EP (10 mM HEPES, pH 7.4, 150 mM NaCl, 3 mM EDTA, and 0.005% P-20 surfactant) and binding studies were carried out at range of defined antibody concentrations. All runs were referenced against a blanked sensor surface (one that had been activated and blocked as described earlier but had no addition of ligand). Analysis of binding was carried out using the BIAevaluation kinetic analysis software version 4.1. Biacore analysis of other antibodies of the invention essentially followed the same protocol as described herein.

[5] = biological target: T1, GST-human NOGO-A56; test: as above; remark: listed apart in the source
Experimental: (§5) The binding kinetics of the anti-NOGO monoclonal antibody (mAb) to recombinantly expressed human NOGO-A (GST-human NOGO-A56) was analysed using the Biacore3000 biosensor. The hNOGO-A chip was prepared as follows:
as §2, §4

[6] = biological target: T1, GST-human NOGO-A56; test: ELISA, coated GST-human NOGO-A56, transfection supernatant, anti-human kappa-HRP, OD 490 nm; remark: listed apart in the source
Experimental: as §1

[7] = biological target: T1, GST-human NOGO-A56; test: SPR (Biacore 3000), GST-human NOGO-A56 amine-coupled to CM5, antibody as analyte; mean (SD) of four experiments
Experimental: as §5, §2, §4

[8] = biological target: T1, GST-human NOGO-A56; test: SPR (Biacore) off-rate ranking, CHO-K1 transient supernatant over GST-human NOGO-A56 chip; mean (SD) of three runs
Experimental: as §2, §3

[9] = biological target: T1, GST-human NOGO-A56; test: ELISA, coated GST-human NOGO-A56, transfection supernatant, anti-human kappa-HRP, OD 490 nm; remark: listed apart in the source
Experimental: as §1

[10] = biological target: T1, GST-human NOGO-A56; test: as above; remark: listed apart in the source
Experimental: as §1

[11] = biological target: T1, GST-human NOGO-A56; test: as above; remark: listed apart in the source
Experimental: as §1

T1 sequence (P08515 1-218, tags or fused parts left off): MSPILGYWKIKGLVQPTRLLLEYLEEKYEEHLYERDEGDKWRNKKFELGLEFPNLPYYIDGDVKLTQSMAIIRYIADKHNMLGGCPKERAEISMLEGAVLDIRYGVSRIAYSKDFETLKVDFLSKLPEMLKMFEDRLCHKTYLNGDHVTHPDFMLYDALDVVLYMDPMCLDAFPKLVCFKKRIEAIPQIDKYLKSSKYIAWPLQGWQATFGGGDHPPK

B1: H17L13 (antibody, human IgG1, kappa)
heavy: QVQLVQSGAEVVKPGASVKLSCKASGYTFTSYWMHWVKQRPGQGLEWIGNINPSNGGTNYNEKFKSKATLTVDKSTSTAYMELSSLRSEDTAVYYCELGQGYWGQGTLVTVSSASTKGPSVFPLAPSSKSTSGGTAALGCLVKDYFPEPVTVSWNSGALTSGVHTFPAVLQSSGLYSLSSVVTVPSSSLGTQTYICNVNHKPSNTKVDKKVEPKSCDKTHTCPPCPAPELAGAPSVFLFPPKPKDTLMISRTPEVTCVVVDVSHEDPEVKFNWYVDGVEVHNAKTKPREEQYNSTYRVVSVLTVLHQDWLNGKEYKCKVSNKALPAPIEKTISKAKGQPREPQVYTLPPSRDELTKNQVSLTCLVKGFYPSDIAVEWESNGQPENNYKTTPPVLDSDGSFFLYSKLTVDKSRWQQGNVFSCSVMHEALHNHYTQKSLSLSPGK
light: DIVMTQSPLSLPVTLGQPASISCRSSKSLLYKDGKTYLNWFQQRPGQSPQLLIYLMSTRASGVPDRFSGGGSGTDFTLKISRVEAEDVGVYYCQQLVEYPLTFGQGTKLEIKRTVAAPSVFIFPPSDEQLKSGTASVVCLLNNFYPREAKVQWKVDNALQSGNSQESVTEQDSKDSTYSLSSTLTLSKADYEKHKVYACEVTHQGLSSPVTKSFNRGEC
notes: Tested as CHO-K1 supernatant
- EC50 (read off the curve) [1]: ~0.06 µg/mL
- koff [2]: 0.00931 s⁻¹

B2: H15L13 (antibody, human IgG1, kappa, V domains shown)
VH: QVQLVQSGAEVVKPGASVKLSCKASGYTFTSYWMHWVKQRPGQGLEWIGNINPSNGGTNYNEKFKSKATLTVDTSSSTAYMELSSLRSEDSAVYYCELGQGYWGQGTLVTVSS
VL: DIVMTQSPLSLPVTLGQPASISCRSSKSLLYKDGKTYLNWFQQRPGQSPQLLIYLMSTRASGVPDRFSGGGSGTDFTLKISRVEAEDVGVYYCQQLVEYPLTFGQGTKLEIKR
notes: Tested as CHO-K1 supernatant
- EC50 (read off the curve) [3]: ~0.05 µg/mL
- koff [2]: 0.00965 s⁻¹

B3: H6L13 (antibody, human IgG1, kappa, V domains shown)
VH: QVQLVQSGAEVKKPGASVKVSCKASGYTFTSYWMHWVRQAPGQGLEWIGNINPSNGGTNYNEKFKSRATMTRDTSTSTAYMELSSLRSEDTAVYYCELGQGYWGQGTLVTVSS
VL: DIVMTQSPLSLPVTLGQPASISCRSSKSLLYKDGKTYLNWFQQRPGQSPQLLIYLMSTRASGVPDRFSGGGSGTDFTLKISRVEAEDVGVYYCQQLVEYPLTFGQGTKLEIKR
notes: Humanised 2A10; Human gamma1 mutated constant region and human kappa; also called H6L13 FL
- Kd [4]: 7.9 nM
- koff [4]: 0.0233 s⁻¹
- kon [4]: 2.95e+06 M⁻¹ s⁻¹
- Kd [5]: 7.3 nM
- koff [5]: 0.013 s⁻¹
- kon [5]: 1.77e+06 M⁻¹ s⁻¹
- EC50 (read off the curve) [6]: ~0.2 µg/mL
- Kd [7]: 7.68 nM
- koff [7]: 0.0137 s⁻¹
- kon [7]: 1.82e+06 M⁻¹ s⁻¹
- koff [8]: 0.0173 s⁻¹

B4: H14L16 (antibody, human IgG1, kappa, V domains shown)
VH: QVQLVQSGAEVVKPGASVKLSCKASGYTFTSYWMHWVKQAPGQGLEWIGNINPSNGGTNYNEKFKSRATLTRDTSTSTAYMELSSLRSEDTAVYYCELGQGYWGQGTLVTVSS
VL: DIVMTQSPLSNPVTLGQPVSISCRSSKSLLYKDGKTYLNWFLQRPGQSPQLLIYLMSTRASGVPDRFSGGGSGTDFTLKISRVEAEDVGVYYCQQLVEYPLTFGQGTKLEIKR
- Kd [5]: 3.6 nM
- koff [5]: 0.00739 s⁻¹
- kon [5]: 2.05e+06 M⁻¹ s⁻¹
- EC50 (read off the curve) [9]: ~0.08 µg/mL
- EC50 (read off the curve) [10]: ~0.09 µg/mL
- koff [2]: 0.0089 s⁻¹

B5: H17L18 (antibody)
heavy: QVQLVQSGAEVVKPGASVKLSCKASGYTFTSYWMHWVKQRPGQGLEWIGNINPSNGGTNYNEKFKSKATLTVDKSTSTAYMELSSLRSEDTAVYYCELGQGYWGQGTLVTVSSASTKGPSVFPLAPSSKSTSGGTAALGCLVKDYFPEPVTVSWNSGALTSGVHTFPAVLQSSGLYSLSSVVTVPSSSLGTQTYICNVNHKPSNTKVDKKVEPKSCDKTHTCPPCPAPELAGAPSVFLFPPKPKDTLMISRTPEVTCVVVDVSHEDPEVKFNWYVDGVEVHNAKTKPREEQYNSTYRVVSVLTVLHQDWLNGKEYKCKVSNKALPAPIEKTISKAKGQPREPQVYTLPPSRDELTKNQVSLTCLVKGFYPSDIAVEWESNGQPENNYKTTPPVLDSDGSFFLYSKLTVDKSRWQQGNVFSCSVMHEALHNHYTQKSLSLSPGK
light: DIVMTQDPLSNPVTLGQPVSISCRSSKSLLYKDGKTYLNWFLQRPGQSPQLLIYLMSTRASGVSDRFSGSGSGTDFTLKISRVEAEDVGVYYCQQLVEYPLTFGQGTKLEIKRTVAAPSVFIFPPSDEQLKSGTASVVCLLNNFYPREAKVQWKVDNALQSGNSQESVTEQDSKDSTYSLSSTLTLSKADYEKHKVYACEVTHQGLSSPVTKSFNRGEC
notes: copies: 2 + 2
- EC50 (read off the curve) [6]: ~0.1 µg/mL

B6: H1L11 (antibody, human IgG1, kappa, V domains shown)
VH: QVQLVQSGAEVKKPGASVKVSCKASGYTFTSYWMHWVRQAPGQGLEWMGNINPSNGGTNYNEKFKSRVTMTRDTSTSTVYMELSSLRSEDTAVYYCELGQGYWGQGTLVTVSS
VL: DIVITQSPLSLPVTLGQPASISCRSSKSLLYKDGKTYLNWFQQRPGQSPQLLIYLMSTRASGVPDRFSGGGSGTDFTLKISRVEAEDVGVYYCQQLVEYPLTFGQGTKLEIKR
notes: Earlier humanised 2A10
- Kd [5]: 21.3 nM
- koff [5]: 0.0284 s⁻¹
- kon [5]: 1.33e+06 M⁻¹ s⁻¹
- Kd [7]: 18.6 nM
- koff [7]: 0.0314 s⁻¹
- kon [7]: 1.73e+06 M⁻¹ s⁻¹
- koff [8]: 0.0403 s⁻¹

B7: H16L17 (antibody, V domains shown)
VH: QVQLVQSGAEVKKPGASVKVSCKASGYTFTSYWMHWVKQRPGQGLEWIGNINPSNGGTNYNEKFKSKATLTVDKSTSTAYMELSSLRSEDTAVYYCELGQGYWGQGTLVTVSS
VL: DIVMTQDPLSLPVTLGQPASISCRSSKSLLYKDGKTYLNWFQQRPGQSPQLLIYLMSTRASGVSDRFSGSGSGTDFTLKISRVEAEDVGVYYCQQLVEYPLTFGQGTKLEIKR
notes: copies: 2 + 2
- EC50 (read off the curve) [6]: ~0.1 µg/mL

B8: H16L18 (antibody, human IgG1, kappa)
heavy: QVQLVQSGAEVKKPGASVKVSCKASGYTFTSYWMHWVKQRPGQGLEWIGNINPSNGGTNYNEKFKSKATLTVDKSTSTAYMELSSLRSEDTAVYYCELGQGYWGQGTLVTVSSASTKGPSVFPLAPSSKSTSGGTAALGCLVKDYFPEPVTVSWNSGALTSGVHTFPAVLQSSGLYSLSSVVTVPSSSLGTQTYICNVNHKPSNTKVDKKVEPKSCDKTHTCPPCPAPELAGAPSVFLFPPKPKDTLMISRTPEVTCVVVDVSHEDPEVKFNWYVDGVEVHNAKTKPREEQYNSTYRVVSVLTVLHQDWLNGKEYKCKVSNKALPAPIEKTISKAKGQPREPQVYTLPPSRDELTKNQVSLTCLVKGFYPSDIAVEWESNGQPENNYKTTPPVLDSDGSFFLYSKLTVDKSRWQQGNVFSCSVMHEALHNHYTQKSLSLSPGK
light: DIVMTQDPLSNPVTLGQPVSISCRSSKSLLYKDGKTYLNWFLQRPGQSPQLLIYLMSTRASGVSDRFSGSGSGTDFTLKISRVEAEDVGVYYCQQLVEYPLTFGQGTKLEIKRTVAAPSVFIFPPSDEQLKSGTASVVCLLNNFYPREAKVQWKVDNALQSGNSQESVTEQDSKDSTYSLSSTLTLSKADYEKHKVYACEVTHQGLSSPVTKSFNRGEC
notes: Humanised 2A10; Human gamma1 mutated constant region and human kappa; also called H16L18 FL
- EC50 (read off the curve) [11]: ~0.4 µg/mL
- EC50 (read off the curve) [9]: ~0.03 µg/mL
- EC50 (read off the curve) [3]: ~0.06 µg/mL
- EC50 (read off the curve) [1]: ~0.04 µg/mL
- Kd [7]: 1.33 nM
- koff [7]: 0.00552 s⁻¹
- kon [7]: 4.18e+06 M⁻¹ s⁻¹
- koff [8]: 0.00609 s⁻¹

B9: H16L13 (antibody, human IgG1, kappa)
heavy: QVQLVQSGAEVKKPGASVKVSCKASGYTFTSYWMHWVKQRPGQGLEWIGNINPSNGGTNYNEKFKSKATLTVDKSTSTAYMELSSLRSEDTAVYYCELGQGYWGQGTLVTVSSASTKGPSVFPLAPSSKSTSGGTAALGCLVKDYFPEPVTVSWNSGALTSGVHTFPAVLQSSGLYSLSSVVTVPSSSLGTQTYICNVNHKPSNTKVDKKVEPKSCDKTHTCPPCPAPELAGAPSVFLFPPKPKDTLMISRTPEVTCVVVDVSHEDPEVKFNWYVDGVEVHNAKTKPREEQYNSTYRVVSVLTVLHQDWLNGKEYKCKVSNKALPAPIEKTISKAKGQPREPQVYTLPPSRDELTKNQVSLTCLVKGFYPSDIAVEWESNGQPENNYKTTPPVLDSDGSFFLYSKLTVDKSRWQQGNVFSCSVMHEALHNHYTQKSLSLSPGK
light: DIVMTQSPLSLPVTLGQPASISCRSSKSLLYKDGKTYLNWFQQRPGQSPQLLIYLMSTRASGVPDRFSGGGSGTDFTLKISRVEAEDVGVYYCQQLVEYPLTFGQGTKLEIKRTVAAPSVFIFPPSDEQLKSGTASVVCLLNNFYPREAKVQWKVDNALQSGNSQESVTEQDSKDSTYSLSSTLTLSKADYEKHKVYACEVTHQGLSSPVTKSFNRGEC
notes: Tested as CHO-K1 supernatant
- EC50 (read off the curve) [1]: ~0.08 µg/mL
- koff [2]: 0.00907 s⁻¹

B10: H15L18 (antibody, human IgG1, kappa, V domains shown)
VH: QVQLVQSGAEVVKPGASVKLSCKASGYTFTSYWMHWVKQRPGQGLEWIGNINPSNGGTNYNEKFKSKATLTVDTSSSTAYMELSSLRSEDSAVYYCELGQGYWGQGTLVTVSS
VL: DIVMTQDPLSNPVTLGQPVSISCRSSKSLLYKDGKTYLNWFLQRPGQSPQLLIYLMSTRASGVSDRFSGSGSGTDFTLKISRVEAEDVGVYYCQQLVEYPLTFGQGTKLEIKR
notes: Tested as CHO-K1 supernatant
- EC50 (read off the curve) [9]: ~0.04 µg/mL
- koff [2]: 0.00594 s⁻¹

B11: H18L18 (antibody, human IgG1, kappa, V domains shown)
VH: QVQLVQSGAEVVKPGASVKLSCKASGYTFTSYWMHWVKQRPGQGLEWIGNINPSNGGTNYNEKFKSKATLTVDKSSSTAYMELSSLRSEDSAVYYCELGQGYWGQGTLVTVSS
VL: DIVMTQDPLSNPVTLGQPVSISCRSSKSLLYKDGKTYLNWFLQRPGQSPQLLIYLMSTRASGVSDRFSGSGSGTDFTLKISRVEAEDVGVYYCQQLVEYPLTFGQGTKLEIKR
notes: Tested as CHO-K1 supernatant
- EC50 (read off the curve) [6]: ~0.1 µg/mL
- koff [2]: 0.0058 s⁻¹
